# Source: patent publication US7708999B2, “Remedies for arthritis” (Kyowa Hakko Kirin Co., Ltd., priority 2001, dated 2010)
# B1: KM1334: anti-FGF-8 neutralizing monoclonal antibody produced by hybridoma KM1334 (FERM BP-5451), mouse IgG1 subclass (antibody, V domains shown)
# VH: QVQLQQSGAEVARPGASVKLSCKASGYTFTDYYLNWVKQRSGQGLEWIGEIDPGSDSIYYNENLEGRATLTADKSSSTAYMQLNSLTSEDSAVYFCARYGYSRYDVRFVYWGQGTLVTVST
# VL: DVLMTQTPLSLPVSLGDQASISCRSSQSLVHSNGRTYLEWYLQKPGQSPKVLIYKVSNRISGVPDRFSGSGSGTDFTLKISRVEAEDLGVYFCFQGSHVPYTFGGGTKLEIK
# Legend:
# FGF-8 [1] = target: T1, FGF-8 (Homo sapiens, UniProt P55075); assay: Inhibition by antibody of FGF-8-promoted growth of human synovial cells; assay type: cell-based; conditions: FGF-8 500 ng/mL
# T1 construct: purchased R & D
# T1 sequence (P55075 23-215 isoform P55075-3 limits assumed): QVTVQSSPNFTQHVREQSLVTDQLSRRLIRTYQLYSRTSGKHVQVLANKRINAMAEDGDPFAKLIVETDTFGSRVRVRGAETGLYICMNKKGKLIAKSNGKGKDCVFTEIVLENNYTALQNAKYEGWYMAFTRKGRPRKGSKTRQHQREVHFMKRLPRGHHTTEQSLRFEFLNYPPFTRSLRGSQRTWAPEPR
# Description: Rabbit synovial cells were collected by the method of Hamilton et al. (Hamilton J. A. and Slywka J., J. Immunol. 126, 851-855, 1981). The isolated synovial cells were suspended in RPMI 1640 medium comprising 10 vol % FBS (FBS-comprising RPMI 1640 medium is hereinafter referred to as FBS/RPMI 1640), and 10,000 cells was inoculated at each well of a 96-well culture plate. After 24 hours of the culturing, the culture medium of each well was removed, and 200 μL of 0.2 vol % FBS/RPMI 1640 (non-stimulated group) or 0.2 vol % FBS/RPMI 1640 comprising FGF-8 (1, 10 or 100 ng/mL) was added. […] The culturing was further performed for 24 hours, and the radioactivity of [^3H]thymidine incorporated in the cells was measured using a liquid scintillation counter (1205 Beta Plate, manufactured by Perkin Elmer Life Science Japan). Six experiments were performed for each condition, and the mean values and the standard error were calculated.
# The same experiment as in Example 3 was performed using human synovial cells derived from the rheumatoid arthritis patient (procured from Toyobo). […] Six experiments were performed for each condition, and the mean values and the standard error were calculated.
# [2] = test system: mouse collagen-induced arthritis model; assay: Mouse collagen-induced arthritis model; assay type: in vivo; conditions: day 42; 2 mg/mL, 200 μL per mouse intraperitoneally; compared to saline administrated group
# Description: The mouse collagen-induced arthritis model was prepared in the following manner according to the method of Kamada et al., (Kamada H. et al., Jpn. J. Pharmacol., 70, 169-175, 1996) using DBA/1J mice (male, 7 weeks old, Japan Charles River).
# A bovine cartilage-derived type II collagen solution (manufactured by Collagen Gijutsu Kenshu) was mixed with a Freund's complete adjuvant (manufactured by Iatron) under ice cooling to form an emulsion which was adjusted such that the final concentration of the type II collagen became 1.5 mg/mL. The emulsion was intradermally injected in amount of 100 μL at the base of the tail of the mouse for sensitization. Twenty-one days later, the additional immunization was performed in the same manner. One group consisted of 10 mice. Anti-FGF-8 neutralizing antibody KM1334 was dissolved in a saline (manufactured by Otsuka Seiyaku Kojo) to a final concentration of 2 mg/mL, and the solution was intraperitoneally administered to a KM1334 administrated group at a dose of 200 μL for each mouse once a day on days 21, 25, 28, 32, 35 and 39 from the initial sensitization of the mouse collagen-induced arthritis model. […] The change with time of edemas of all limbs in collagen-induced arthritis was evaluated by the scoring from 0 to 4 in each limb to a total of 16 at the maximum score in all limbs. […]
# FGF-8 [3] = target: T1, FGF-8; assay: Inhibition by antibody of FGF-8-promoted growth of rabbit synovial cells; assay type: cell-based; conditions: FGF-8 100 ng/mL, 0.1, 0.3, 1, 3 or 10 μg/ml tested
# Description: Rabbit synovial cells were collected by the method of Hamilton et al. (Hamilton J. A. and Slywka J., J. Immunol. 126, 851-855, 1981). The isolated synovial cells were suspended in RPMI 1640 medium comprising 10 vol % FBS (FBS-comprising RPMI 1640 medium is hereinafter referred to as FBS/RPMI 1640), and 10,000 cells was inoculated at each well of a 96-well culture plate. After 24 hours of the culturing, the culture medium of each well was removed, and 200 μL of 0.2 vol % FBS/RPMI 1640 (non-stimulated group) or 0.2 vol % FBS/RPMI 1640 comprising FGF-8 (1, 10 or 100 ng/mL) was added. When the activity of the anti-FGF-8 neutralizing antibody was examined, 200 μL of 0.2 vol % FBS/RPMI 1640 comprising FGF-8 (100 ng/mL) (0 group) or 0.2 vol % FBS/RPMI 1640 comprising FGF-8 (100 ng/mL) and anti-FGF-8 neutralizing antibody KM1334 (0.1, 0.3, 1, 3 or 10 μg/ml) was added to each well. After 48 hours of the culturing, 9.25 kBq per well of [^3H]thymidine was added. The culturing was further performed for 24 hours, and the radioactivity of [^3H]thymidine incorporated in the cells was measured using a liquid scintillation counter (1205 Beta Plate, manufactured by Perkin Elmer Life Science Japan). Six experiments were performed for each condition, and the mean values and the standard error were calculated.
# FGF-8 [4] = target: T1, FGF-8; assay: Inhibition by antibody of FGF-8-promoted production of matrix metalloproteinase-3 from rabbit chondrocytes; assay type: cell-based; conditions: FGF-8 100 ng/mL, 48 hours
# Description: Rabbit articular chondrocytes were isolated and cultured by the method described in Example 1. After the chondrocytes became confluent, the culture solution was replaced with 0.5 vol % FBS/DMEM, followed by the culturing for 24 hours. The culture solution was removed, and 1 mL of 0.5 vol % FBS/DMEM (non-stimulated group), 0.5 vol % FBS/DMEM comprising FGF-8 (100 ng/mL)(0 group) or 0.5 vol % FBS/DMEM comprising FGF-8 (100 ng/mL) and anti-FGF-8 neutralizing antibody KM1334 (1, 3 or 10 μg/mL) was added, followed by the culturing for 48 hours. After 48 hours, the culture medium was recovered, the matrix metalloproteinase-3 concentration in the culture medium was measured using rabbit matrix metalloproteinase-3 ELISA system (manufactured by Amersham Biosciences). Three experiments were performed for each condition, and the mean values and the standard error were calculated.
molecule,measurement,setting,value
B1,antibody concentration from which the FGF-8-dependent incorporation of [3H]thymidine was significantly inhibited,FGF-8 [1],≥ 1 µg/mL
same,inhibition of the arthritic score,[2],34%
same,antibody concentration from which the FGF-8-dependent incorporation of [3H]thymidine was significantly inhibited,FGF-8 [3],≥ 0.3 µg/mL
same,antibody concentration at which the production of matrix metalloproteinase-3 from the chondrocytes with FGF-8 was significantly inhibited,FGF-8 [4],≥ 1 µg/mL
same,percent inhibition of matrix metalloproteinase-3 production,FGF-8 [4]; antibody 1 μg/mL,72%
same,percent inhibition of matrix metalloproteinase-3 production,FGF-8 [4]; antibody 3 μg/mL,74%
same,percent inhibition of matrix metalloproteinase-3 production,FGF-8 [4]; antibody 10 μg/mL,100%
